Experiment [1] deals with T1, Human SIRPαV1 (NP_542970.1), Extracellular Domain + His-Tag (human, UniProt P78324 31-373).
T1 construct: also called huSIRPαV1; hSIRPαV1; not shown: His-Tag
Put plainly: SPR, antibody captured on Protein A/G, ECD-His analyte, 1:1 fit. In short, it runs like this: (§1)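 Biacore 8K+ at HBS-EP+, with antibodies (~1 ug/ml) captured on Protein A/G CM5 surface to ~240 RU. SIRPα ECD-His analyte dilutions injected at 30 μl/min for 300 s association, 600 s dissociation.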

Experiment [2] addresses T2, Human SIRPαV2 (CAA71403.1), Extracellular Domain + His-Tag (human, UniProt P78324 31-373).
T2 construct: also called huSIRPαV2; hSIRPαV2; not shown: His-Tag
The experiment is described as above. The procedure, abridged: as §1

Experiment [3] has as its target T3, cynoSIRPα (XP_015313155), Extracellular Domain + His-Tag (cynomolgus monkey).
T3 construct: also called CySIRPα XP_015313155; not shown: His-Tag
T3 chain: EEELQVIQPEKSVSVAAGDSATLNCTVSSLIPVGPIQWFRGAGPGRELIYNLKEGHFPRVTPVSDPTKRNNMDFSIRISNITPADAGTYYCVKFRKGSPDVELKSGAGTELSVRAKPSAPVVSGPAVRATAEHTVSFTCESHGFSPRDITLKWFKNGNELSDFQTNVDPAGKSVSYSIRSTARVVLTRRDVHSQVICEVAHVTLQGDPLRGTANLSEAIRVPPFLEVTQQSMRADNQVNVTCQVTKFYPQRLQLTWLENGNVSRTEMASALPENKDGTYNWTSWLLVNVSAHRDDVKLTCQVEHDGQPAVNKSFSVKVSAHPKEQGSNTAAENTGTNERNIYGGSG
Put plainly: SPR, antibody captured on Protein A/G, ECD-His analyte, steady-state fit. How it is done:
(§2) The binding kinetics of anti-SIRPα antibodies to various SIRPα analytes are determined by surface plasmon resonance (SPR) using a Biacore 8K+(Cytiva). 1×HBS-EP+(Cytiva) is used as running buffer and for all the dilutions unless stated otherwise. The Series S CM5 sensorchip is activated with a 1:1 mixture of 0.1 M NHS (N-hydroxysuccinimide) and 0.4 M EDC (1-Ethyl-3-(3-dimethylaminopropyl) carbodiimide hydrochloride) for 420 seconds at a flow rate of 10 μl/min and immobilized with Protein A/G (Thermo Scientific, 10 μg/ml in 10 mM acetate pH 4.5) for 420 seconds at a flowrate of 10 μl/min resulting in approximately 3000 RU of Protein A/G on the surface. The sensorchip is then deactivated with 1 M ethanolamine HCl pH 8.5 for 420 seconds at a flowrate of 10 μl/min.
(§3) Antibodies (approximately 1 ug/ml) are captured on the Protein A/G surface for 60 seconds at a flowrate of 10 μl/min resulting in capture levels of approximately 240 RU. Dilutions of each SIRP protein (Extracellular Domain+His-Tag, with the concentrations as indicated) are injected as analytes over the captured antibody for 300 seconds of association at a flowrate of 30 μl/min, followed by a dissociation for 600 seconds.
(§4) The above procedures are used to measure binding properties of antibodies of the present disclosure. For each analyte used, the highest concentration was as indicated in Example 3 (see Table 36).
In general terms: SPR reads the build-up and loss of mass on a sensor chip optically.

For experiment [4], the target named is T4, cynoSIRPα (EGM_02252), Extracellular Domain + His-Tag (cynomolgus monkey).
T4 construct: also called CySIRPα EGM_02252; not shown: His-Tag
T4 chain: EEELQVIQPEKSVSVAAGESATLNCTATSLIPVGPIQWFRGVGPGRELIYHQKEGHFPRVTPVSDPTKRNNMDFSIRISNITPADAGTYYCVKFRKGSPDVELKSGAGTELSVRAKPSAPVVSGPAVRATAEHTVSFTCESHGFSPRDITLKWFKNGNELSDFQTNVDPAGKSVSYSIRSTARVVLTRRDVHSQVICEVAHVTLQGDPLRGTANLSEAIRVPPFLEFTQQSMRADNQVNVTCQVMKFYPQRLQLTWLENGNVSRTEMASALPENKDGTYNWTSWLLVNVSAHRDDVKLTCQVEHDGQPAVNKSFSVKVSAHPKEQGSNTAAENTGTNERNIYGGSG
The description is as above. How it is done: as §2, §3, §4

Experiment [5] concerns the target T5, cynoSIRPα (NP_001271679), Extracellular Domain + His-Tag (cynomolgus monkey).
T5 construct: also called CySIRPα NP_001271679; not shown: His-Tag
T5 chain: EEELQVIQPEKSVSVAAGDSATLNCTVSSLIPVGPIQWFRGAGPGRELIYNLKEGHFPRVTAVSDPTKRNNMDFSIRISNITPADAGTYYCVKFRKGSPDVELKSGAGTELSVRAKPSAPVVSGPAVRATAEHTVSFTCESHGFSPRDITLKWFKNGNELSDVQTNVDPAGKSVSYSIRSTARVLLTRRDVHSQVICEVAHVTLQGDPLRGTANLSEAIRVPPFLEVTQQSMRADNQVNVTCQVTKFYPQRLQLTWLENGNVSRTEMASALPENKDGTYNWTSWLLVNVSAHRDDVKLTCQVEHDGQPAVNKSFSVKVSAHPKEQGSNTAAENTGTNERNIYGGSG
The experiment is described as above. On the procedure:
as §2, §3, §4

T1 sequence (P78324 other isoform, or with tags, fused parts or gaps): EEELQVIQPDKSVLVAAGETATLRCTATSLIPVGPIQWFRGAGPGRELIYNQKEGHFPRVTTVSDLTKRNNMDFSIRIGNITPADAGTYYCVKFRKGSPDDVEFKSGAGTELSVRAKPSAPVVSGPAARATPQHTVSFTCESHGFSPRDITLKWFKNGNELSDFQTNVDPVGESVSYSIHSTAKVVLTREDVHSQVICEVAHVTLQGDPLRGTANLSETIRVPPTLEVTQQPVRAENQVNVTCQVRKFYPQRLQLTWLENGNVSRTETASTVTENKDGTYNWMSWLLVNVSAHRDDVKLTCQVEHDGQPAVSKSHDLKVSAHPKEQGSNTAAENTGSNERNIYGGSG
T2 sequence (P78324 other isoform, or with tags, fused parts or gaps): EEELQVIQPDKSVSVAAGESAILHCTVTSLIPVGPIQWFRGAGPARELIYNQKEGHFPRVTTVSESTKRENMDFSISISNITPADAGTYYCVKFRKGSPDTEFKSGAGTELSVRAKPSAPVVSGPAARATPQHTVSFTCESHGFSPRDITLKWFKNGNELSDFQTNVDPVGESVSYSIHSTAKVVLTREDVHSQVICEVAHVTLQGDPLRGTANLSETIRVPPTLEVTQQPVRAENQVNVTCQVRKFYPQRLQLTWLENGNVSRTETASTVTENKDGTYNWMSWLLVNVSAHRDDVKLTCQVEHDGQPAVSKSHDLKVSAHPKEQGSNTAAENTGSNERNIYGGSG

B1: Antibody A8 (antibody, human IgG1, kappa, L234A L235A, V domains shown)
VH: EVQLVESGGGLVQPGGSLRLSCAASGFTLSSYDMHWVRQAPGKGLEWVSAIGTAGDTYYTGSVKGRFTISRENAKNSLYLQMNSLRAGDTAVYYCVRGGVWDDAFDIWGQGTMVTVSS
VL: DIQMTQSPSSLSASVGDRVTITCRASQGINNYAAWFQQKPGKAPKSLIYTASSLHSGVPSKFSGSGSGTDFTLTISSLQPEDFATYYCQQYVSYPYTFGQGTKLEIKR
B1: the Kd is 8.53 nM in experiment [1]; 18.8 nM in experiment [2]; 415 nM in experiment [3]; 520 nM in experiment [4]; 639 nM in experiment [5]. Moreover, the figures for the koff in experiment [1] and in experiment [2] were 0.00604 s⁻¹ and 0.0162 s⁻¹, respectively. Moreover, the kon in experiment [1] was 708000 M⁻¹ s⁻¹; in experiment [2] it was 859000 M⁻¹ s⁻¹.

B2: Antibody A15 (antibody, human IgG1, kappa, L234A L235A, V domains shown)
VH: EVQLVESGGGLVQPGGSLRLSCAASGFTLSSYDMHWVRQAPGKGLEWVSAIGTAGDTYYTGSVKGRFTISRENAKNSLYLQMNSLRAEDTAVYYCVRGGVWDDAFDIWGQGTMVTVSS
VL: DIQMTQSPSSLSASVGDRVTITCRASQDINNYLAWFQQKPGKAPKSLIYTASSLHSGVPSKFSGSGSGTDFTLTISSLQPEDFATYYCQQYVSYPYTFGQGTKLEIKR
Take B2: the Kd was 7.06 nM in experiment [1]; 7.91 nM in experiment [2]; 174 nM in experiment [3]; 224 nM in experiment [4]; 317 nM in experiment [5]. The figures for the koff in experiment [1] and in experiment [2] were 0.00371 s⁻¹ and 0.00671 s⁻¹, respectively. Moreover, the kon came out at 526000 M⁻¹ s⁻¹ in experiment [1] and 848000 M⁻¹ s⁻¹ in experiment [2].

B3: Antibody A12 (antibody, human IgG1, kappa, L234A L235A, V domains shown)
VH: EVQLVESGGGLVQPGGSLRLSCAASGFTLSSYDMHWVRQATGKGLEWVSAIGTAGDTYYTGSVKGRFTISRENAKNSLYLQMNSLRASDTAVYYCVRGGVWDDAFDIWGQGTMVTVSS
VL: DIQMTQSPSSLSASVGDRVTITCRASQDINNYLAWFQQKPGKAPKSLIYTASSLHSGVPSKFSGSGSGTDFTLTISSLQPEDFATYYCQQYVSYPYTFGQGTKLEIKR
In the case of B3, the Kd in experiment [1] stood at 7.83 nM; in experiment [2], 8.96 nM; in experiment [3], 195 nM; in experiment [4], 247 nM; in experiment [5], 384 nM. Besides, the values for the koff in experiment [1] and in experiment [2] were 0.00378 s⁻¹ and 0.00689 s⁻¹, respectively. Further, the on-rate (kon) in experiment [1] was 482000 M⁻¹ s⁻¹; in experiment [2], 769000 M⁻¹ s⁻¹.

B4: Antibody A14 (antibody, human IgG1, kappa, L234A L235A, V domains shown)
VH: EVQLVESGGGLVQPGGSLRLSCAASGFTLSSYDMHWVRQAPGKGLEWVSAIGTAGDTYYTGSVKGRFTISRENAKNSLYLQMNSLRASDTAVYYCVRGGVWDDAFDIWGQGTMVTVSS
VL: DIQMTQSPSSLSASVGDRVTITCRASQDINNYLAWFQQKPGKAPKSLIYTASSLHSGVPSKFSGSGSGTDFTLTISSLQPEDFATYYCQQYVSYPYTFGQGTKLEIKR
On to B4, for which the Kd came out at 8.13 nM in experiment [1]; 7.95 nM in experiment [2]; 176 nM in experiment [3]; 222 nM in experiment [4]; 316 nM in experiment [5]. Moreover, the off-rate (koff) came to 0.00397 s⁻¹ in experiment [1] and 0.00648 s⁻¹ in experiment [2]. Further, the on-rate (kon) in experiment [1] was determined as 488000 M⁻¹ s⁻¹; in experiment [2], 816000 M⁻¹ s⁻¹.

B5: Antibody A9 (antibody, human IgG1, kappa, L234A L235A, V domains shown)
VH: EVQLVESGGGLVQPGGSLRLSCAASGFTLSSYDMHWVRQAPGKGLEWVSAIGTAGDTYYTGSVKGRFTISRENAKNSLYLQMNSLRADDTAVYYCVRGGVWDDAFDIWGQGTMVTVSS
VL: DIQMTQSPSSLSASVGDRVTITCRASQDINNYLAWFQQKPGKAPKSLIYTASSLHSGVPSKFSGSGSGTDFTLTISSLQPEDFATYYCQQYVSYPYTFGQGTKLEIKR
As to B5, the Kd was found to be 7.34 nM in experiment [1]; 8.25 nM in experiment [2]; 174 nM in experiment [3]; 230 nM in experiment [4]; 346 nM in experiment [5]. Moreover, the koff came to 0.00363 s⁻¹ in experiment [1] and 0.00652 s⁻¹ in experiment [2]. Besides, the on-rate constant (kon) worked out at 495000 M⁻¹ s⁻¹ in experiment [1] and 791000 M⁻¹ s⁻¹ in experiment [2].

B6: Antibody A13 (antibody, human IgG1, kappa, L234A L235A, V domains shown)
VH: EVQLVESGGGLVQPGGSLRLSCAASGFTLSSYDMHWVRQAPGKGLEWVSAIGTAGDTYYTGSVKGRFTISRENAKNSLYLQMNSLRAADTAVYYCVRGGVWDDAFDIWGQGTMVTVSS
VL: DIQMTQSPSSLSASVGDRVTITCRASQDINNYLAWFQQKPGKAPKSLIYTASSLHSGVPSKFSGSGSGTDFTLTISSLQPEDFATYYCQQYVSYPYTFGQGTKLEIKR
With B6, the Kd in experiment [1] was found to be 7.28 nM; in experiment [2], 8.36 nM; in experiment [3], 177 nM; in experiment [4], 223 nM; in experiment [5], 330 nM. Also, the dissociation rate constant (koff) in experiment [1] is 0.00352 s⁻¹; in experiment [2], 0.00635 s⁻¹. For the same molecule, the figures for the on-rate constant (kon) in experiment [1] and in experiment [2] were 484000 M⁻¹ s⁻¹ and 760000 M⁻¹ s⁻¹, respectively.

B7: Antibody A16 (antibody, human IgG1, kappa, L234A L235A, V domains shown)
VH: EVQLVESGGGLVQPGGSLRLSCAASGFTLSSYDMHWVRQAPGKGLEWVSAIGTAGDTYYTGSVKGRFTISRENAKNSLYLQMNSLRAGDTAVYYCVRGGVWDDAFDIWGQGTMVTVSS
VL: DIQMTQSPSSLSASVGDRVTITCRASQDINNYLAWFQQKPGKAPKSLIYTASSLHSGVPSKFSGSGSGTDFTLTISSLQPEDFATYYCQQYVSYPYTFGQGTKLEIKR
On to B7, for which the Kd in experiment [1] was 7.98 nM; in experiment [2], 8.22 nM; in experiment [3] it was 174 nM; in experiment [4], 224 nM; in experiment [5], 306 nM. The off-rate (koff) in experiment [1] worked out at 0.00377 s⁻¹; in experiment [2], 0.0063 s⁻¹. Also, the kon in experiment [1] was determined as 472000 M⁻¹ s⁻¹; in experiment [2], 766000 M⁻¹ s⁻¹.

A word on the Kd: it is the free concentration of one partner at which half of the binding sites on the other are occupied at equilibrium, for simple one-to-one binding. As usually defined, the koff is a measure of how fast the partners let go of each other. By kon is commonly meant a measure of how fast the partners come together.

(Values after US20230012273A1 (Boehringer Ingelheim, published 2023).)
